Source: patent US11389568B2, “Tyrosine peptide cross-linked biocompatible hydrogel and method of production” (SEOUL NATIONAL UNIVERSITY R&DB FOUNDATION, priority 2016, dated 2022)
Ends that are not written are not given here.

Experiments:
[1] = Storage modulus (G′) by rheometer; type: physicochemical; details: for storage modulus (G′), comparison in words: at 30 rad/s
Description: The crosslinking time and storage modulus (G′) were analyzed using a rheometer. Hydrogel samples with 20 mm diameter and 5 mm thickness were prepared. The crosslinking time was measured over time at an oscillation frequency of 1 Hz and a stress sweep of 10 Pa. The storage modulus was measured at an oscillation frequency of 1 Hz and a stress sweep of 1-100 Pa. All measurements were performed in triplicate and averaged.
Specifically, the storage modulus G′ was obtained by oscillatory shear measurements at room temperature using a constant stress rheometer (Discovery Hybrid Rheometer-3 from TA Instruments, USA). For the measurements, hydrogel samples with a defined shape of 20 mm diameter and 5 mm thickness were prepared. The cured hydrogel was placed on a lower rheometer stage, and an upper rheometer fixture (diameter 20 mm) was lowered until it made contact with the top surface of the sample. The value of G′ was then measured at oscillation frequency 1 Hz in a stress sweep test of 1-100 Pa. This stress sweep was performed in order to determine the limit of the linear viscoelastic range. All the G′ measurements were obtained in triplicate. Error bars in figures represent the standard deviation from the mean value (see FIGS. 7 and 9).
Specifically, it is well known that the mechanical properties of hydrogels are closely related to the crosslinking density. The storage modulus (G′) measured by rheological analysis is a reliable value representing the rigidity of the subjected hydrogel. The G′ of HA-Ty hydrogel without any peptide addition was 156.6 Pa at a strain of 1% at 30 rad/s (see FIG. 10).

[2] = Swelling test of lyophilized hydrogels in distilled water; type: physicochemical; details: distilled water at 25° C.
Description: Swelling and degradation tests on the hydrogels were conducted by the following procedures. First, HA hydrogels were photocrosslinked with different peptide sequences (YYACAYY (SEQ ID: 4), di-YYACAYY (SEQ ID: 5), YYAYY (SEQ ID: 7), YYCYY (SEQ ID; 8), and YYAHAYY (SEQ ID: 6), 0.1 mM each). Swelling experiments were performed by measuring the increase in weight of the lyophilized hydrogels. Lyophilized hydrogels were placed in 1 mL distilled water at 25° C. The swelling ratio (S %) of hydrogels in distilled water was calculated using S %=[(Wt−W0]/W0)]100, where Wt is the weight of the swollen hydrogel at time t, and W0 is the weight of the dry gel at time 0. Degradation tests were performed by measuring the weights of hydrogels in PBS containing 0.01 mg/mL hyaluronidase at different time points.

[3] = Solubility of the peptide in hydrogel preparation; type: physicochemical
fibroblasts = assay: Cytotoxicity test by MTT assay; type: cell-based; details: riboflavin 0.1 μM-10 mM, YC7 0.1 μM-1 mM, 24 hr at 37° C.
Description: To investigate the biocompatibility of the hydrogels, fibroblasts were used in a cytotoxicity test. Fibroblasts were seeded with the density of 4×10^4/well in 24 well plates. […] Finally, cell toxicity was evaluated by MTT assay. Fibroblasts were grown with the density of 1×10^5/well in 12 well dishes to test their proliferation in different hydrogels. The grown cells area was scratched using pipette tips to create a wound-like environment and the hydrogels were added to 12 transwells, which were then placed in the dishes where cells had been grown. The proliferation effect of cells was evaluated depending on the degree of cell filling in the scratches.

Substance: YYAHAYY [YH7, tyrosine-based peptide; the code also labels the HA-Ty hydrogel photocrosslinked with it]
- storage modulus (G′), comparison in words [1]: almost the same G′ as HA-Ty

Substance: YYCYY [YC5, tyrosine-based peptide; the code also labels the HA-Ty hydrogel photocrosslinked with it]
- storage modulus (G′), comparison in words [1]: higher than that of YH7

Substance: YYAYY [YA5, tyrosine-based peptide; the code also labels the HA-Ty hydrogel photocrosslinked with it]
- storage modulus (G′), comparison in words [1]: higher than that of YH7

Substance: di-YYACAYY (YYACAYYYYACAYY; cysteine pairing not given here; also: dimer of YYACAYY) [DYC7, tyrosine-based peptide; the code also labels the HA-Ty hydrogel photocrosslinked with it]
- storage modulus (G′), comparison in words [1]: highest G′
- storage modulus (G′) ([1]; strain of 1% at 30 rad/s, peptide 0.1 mM): 297.6 Pa
- swelling ratio, comparison in words [2]: slightly higher than that of YC7
- solubility [3]: partial insolubility

Substance: YYACAYY [YC7, YYACAYY]
- cytotoxicity (fibroblasts): no cytotoxicity
